Measured values as given in patent publication US20190269793.

Legend:
Vaccinia virus K3 = molecular target: T1, Vaccinia virus K3
T1 chain: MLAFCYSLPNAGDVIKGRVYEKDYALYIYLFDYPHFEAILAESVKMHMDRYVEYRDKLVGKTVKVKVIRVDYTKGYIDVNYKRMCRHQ

Vaccinia virus E3 = molecular target: T2, Vaccinia virus E3
T2 chain: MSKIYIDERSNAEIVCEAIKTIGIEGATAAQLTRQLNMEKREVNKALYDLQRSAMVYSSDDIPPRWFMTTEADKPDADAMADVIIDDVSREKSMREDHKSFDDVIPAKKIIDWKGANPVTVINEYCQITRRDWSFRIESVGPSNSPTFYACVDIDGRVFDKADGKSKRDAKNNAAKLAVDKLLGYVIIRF

B1: RNA-dependent protein kinase (PKR) (protein)
chain: AGDLSAGFFMEELNTYRQKQGVVLKYQELPNSGPPHDRRFTFQVIIDGREFPEGEGRSKKEAKNAAAKLAVEILNKEKKAVSPLLLTTTNSSEGLSMGNYIGLINRIAQKKRLTVNYEQCASGVHGPEGFHYKCKMGQKEYSIGTGSTKQEAKQLAAKLAYLQILSEETSVKSDYLSSGSFATTCESQSNSLVTSTLASESSSEGDFSADTSEINSNSDSLNSSSLLMNGLRNNQRKAKRSLAPRFDLPDMKETKYTVDKRFGMDFKEIELIGSGGFGQVFKAKHRIDGKTYVIKRVKYNNEKAEREVKALAKLDHVNIVHYNGCWDGFDYDPETSDDSLESSDYDPENSKNSSRSKTKCLFIQMEFCDKGTLEQWIEKRRGEKLDKVLALELFEQITKGVDYIHSKKLIHRDLKPSNIFLVDTKQVKIGDFGLVTSLKNDGKRTRSKGTLRYMSPEQISSQDYGKEVDLYALGLILAELLHVCDTAFETSKFFTDLRDGIISDIFDKKEKTLLQKLLSKKPEDRPNTSEILRTLTVWKKSPEKNERHTC
- PKR autophosphorylation (Western blot with phospho-PKR specific antibody) (Vaccinia virus K3): E3 and K3 reduce PKR autophosphorylation
- PKR autophosphorylation (Western blot with phospho-PKR specific antibody) (Vaccinia virus E3): E3 and K3 reduce PKR autophosphorylation
